Experiment [1] addresses full-length recombinant bank vole prion protein with methionine at residue 109 (rBVPrP-109M) (bank vole (Myodes glareolus), UniProt Q8VHV5 23-231). As to the kind of experiment: SPR. Conditions: both partners purified.
For experiment [2], the target named is full-length recombinant bank vole prion protein with isoleucine at residue 109 (rBVPrP-109I) (bank vole (Myodes glareolus), UniProt Q8VHV5 23-231, 109I). Description: SPR. Particulars: both partners purified.

B1: Quiescin sulfhydryl oxidase (QSOX) (enzyme)
chain: APRSALYSPSDPLTLLQADTVRGAVLGSRSAWAVEFFASWCGHCIAFAPTWKALAEDVKAWRPALYLAALDCAEETNSAVCRDFNIPGFPTVRFFKAFTKNGSGAVFPVAGADVQTLRERLIDALESHHDTWPPACPPLEPAKLEEIDGFFARNNEEYLALIFEKGGSYLGREVALDLSQHKGVAVRRVLNTEANVVRKFGVTDFPSCYLLFRNGSVSRVPVLMESRSFYTAYLQRLSGLTREAAQTTVAPTTANKIAPTVWKLADRSKIYMADLESALHYILRIEVGRFPVLEGQRLVALKKFVAVLAKYFPGRPLVQNFLHSVNEWLKRQKRNKIPYSFFKTALDDRKEGAVLAKKVNWIGCQGSEPHFRGFPCSLWVLFHFLTVQAARQNVDHSQEAAKAKEVLPAIRGYVHYFFGCRDCASHFEQMAAASMHRVGSPNAAVLWLWSSHNRVNARLAGAPSEDPQFPKVQWPPRELCSACHNERLDVPVWDVEATLNFLKAHFSPSNIILDFPAAGSAARRDVQNVAAAPELAMGALELESRNSTLDPGKPEMMKSPTNTTPHVPAEGPELI
Regarding B1, the results for the Kd in experiment [1] and in experiment [2] were 23 nM and 11 nM, respectively.

A word on the Kd: it is a measure of binding affinity in units of concentration.
